Measurements as given in article PMC2902799.

Key:
Assay in all cases: cross-linking
[1] = biological target: CheA G636C (single-cysteine mutant of cysteine-less CheA) (Salmonella typhimurium) (UniProt P09384)
[2] = biological target: CheA Q10C/E425C (dicysteine mutant of cysteine-less CheA) (Salmonella typhimurium) (UniProt P09384)
[3] = biological target: CheA Q10C/S351C (dicysteine mutant of cysteine-less CheA) (Salmonella typhimurium) (UniProt P09384)
[4] = biological target: CheA A37C (single-cysteine mutant of cysteine-less CheA) (Salmonella typhimurium) (UniProt P09384)
[5] = biological target: CheA R171C (single-cysteine mutant of cysteine-less CheA) (Salmonella typhimurium) (UniProt P09384)
[6] = biological target: CheA L627C (single-cysteine mutant of cysteine-less CheA) (Salmonella typhimurium) (UniProt P09384)
[7] = biological target: CheA E311C (single-cysteine mutant of cysteine-less CheA) (Salmonella typhimurium) (UniProt P09384)
[8] = biological target: CheA Q10C/E460C (dicysteine mutant of cysteine-less CheA) (Salmonella typhimurium) (UniProt P09384)
[9] = biological target: CheA Q10C/S514C (dicysteine mutant of cysteine-less CheA) (Salmonella typhimurium) (UniProt P09384)
[10] = biological target: CheA Q10C/D359C (dicysteine mutant of cysteine-less CheA) (Salmonella typhimurium) (UniProt P09384)
[11] = biological target: CheA Q10C/M469C (dicysteine mutant of cysteine-less CheA) (Salmonella typhimurium) (UniProt P09384)
[12] = biological target: CheA Q125C (single-cysteine mutant of cysteine-less CheA) (Salmonella typhimurium) (UniProt P09384)
[13] = biological target: CheA Q10C/Q454C (dicysteine mutant of cysteine-less CheA) (Salmonella typhimurium) (UniProt P09384)
[14] = biological target: CheA Q10C/E311C (dicysteine mutant of cysteine-less CheA) (Salmonella typhimurium) (UniProt P09384)
[15] = biological target: CheA Q10C (single-cysteine mutant of cysteine-less CheA) (Salmonella typhimurium) (UniProt P09384)
[16] = biological target: CheA Q10C/E369C (dicysteine mutant of cysteine-less CheA) (Salmonella typhimurium) (UniProt P09384)
[17] = biological target: CheA M469C (single-cysteine mutant of cysteine-less CheA) (Salmonella typhimurium) (UniProt P09384)
[18] = biological target: CheA S514C (single-cysteine mutant of cysteine-less CheA) (Salmonella typhimurium) (UniProt P09384)
[19] = biological target: CheA E109C (single-cysteine mutant of cysteine-less CheA) (Salmonella typhimurium) (UniProt P09384)
[20] = biological target: CheA R607C (single-cysteine mutant of cysteine-less CheA) (Salmonella typhimurium) (UniProt P09384)
[21] = biological target: CheA A114C (single-cysteine mutant of cysteine-less CheA) (Salmonella typhimurium) (UniProt P09384)
[22] = biological target: CheA Q596C (single-cysteine mutant of cysteine-less CheA) (Salmonella typhimurium) (UniProt P09384)

“CheA G636C (single-cysteine mutant of cysteine-less CheA) (from UniProt P09384 1-671) (enzyme)” showed a fraction (%) intradimer [1] of 83%.
In the case of “CheA Q10C/E425C (dicysteine mutant of cysteine-less CheA) (from UniProt P09384 1-671) (enzyme)”, the fraction (%) intradimer [2] is reported as 100%.
Work on “CheA Q10C/S351C (dicysteine mutant of cysteine-less CheA) (from UniProt P09384 1-671) (enzyme)” yielded a fraction (%) intradimer [3] of 100%.
“CheA A37C (single-cysteine mutant of cysteine-less CheA) (from UniProt P09384 1-671) (enzyme)” gave a fraction (%) intradimer [4] of 46%.
Work on “CheA R171C (single-cysteine mutant of cysteine-less CheA) (from UniProt P09384 1-671) (enzyme)” yielded a fraction (%) intradimer [5] of 100%.
With “CheA L627C (single-cysteine mutant of cysteine-less CheA) (from UniProt P09384 1-671) (enzyme)” the fraction (%) intradimer [6] was 100%.
Work on “CheA E311C (single-cysteine mutant of cysteine-less CheA) (from UniProt P09384 1-671) (enzyme)” yielded a fraction (%) intradimer [7] of 93%.
“CheA Q10C/E460C (dicysteine mutant of cysteine-less CheA) (from UniProt P09384 1-671) (enzyme)” showed a fraction (%) intradimer [8] of 91%.
“CheA Q10C/S514C (dicysteine mutant of cysteine-less CheA) (from UniProt P09384 1-671) (enzyme)” was tested, and the fraction (%) intradimer [9] was 49%.
“CheA Q10C/D359C (dicysteine mutant of cysteine-less CheA) (from UniProt P09384 1-671) (enzyme)” showed a fraction (%) intradimer [10] of 86%.
In the case of “CheA Q10C/M469C (dicysteine mutant of cysteine-less CheA) (from UniProt P09384 1-671) (enzyme)”, the fraction (%) intradimer [11] is reported as 100%.
With “CheA Q125C (single-cysteine mutant of cysteine-less CheA) (from UniProt P09384 1-671) (enzyme)” the fraction (%) intradimer [12] was 81%.
“CheA Q10C/Q454C (dicysteine mutant of cysteine-less CheA) (from UniProt P09384 1-671) (enzyme)” gave a fraction (%) intradimer [13] of 100%.
With “CheA Q10C/E311C (dicysteine mutant of cysteine-less CheA) (from UniProt P09384 1-671) (enzyme)” the fraction (%) intradimer [14] was 87%.
With “CheA Q10C (single-cysteine mutant of cysteine-less CheA) (from UniProt P09384 1-671) (enzyme)” the fraction (%) intradimer [15] was 100%.
“CheA Q10C/E369C (dicysteine mutant of cysteine-less CheA) (from UniProt P09384 1-671) (enzyme)” was tested, and the fraction (%) intradimer [16] was 81%.
“CheA M469C (single-cysteine mutant of cysteine-less CheA) (from UniProt P09384 1-671) (enzyme)” was tested, and the fraction (%) intradimer [17] was 72%.
With “CheA S514C (single-cysteine mutant of cysteine-less CheA) (from UniProt P09384 1-671) (enzyme)” the fraction (%) intradimer [18] was 50%.
With “CheA E109C (single-cysteine mutant of cysteine-less CheA) (from UniProt P09384 1-671) (enzyme)” the fraction (%) intradimer [19] was 82%.
“CheA R607C (single-cysteine mutant of cysteine-less CheA) (from UniProt P09384 1-671) (enzyme)” gave a fraction (%) intradimer [20] of 100%.
Work on “CheA A114C (single-cysteine mutant of cysteine-less CheA) (from UniProt P09384 1-671) (enzyme)” yielded a fraction (%) intradimer [21] of 84%.
“CheA Q596C (single-cysteine mutant of cysteine-less CheA) (from UniProt P09384 1-671) (enzyme)” was tested, and the fraction (%) intradimer [22] was 100%.
